Measured values published in article doi:10.1101/2020.06.23.167452v1 (biorxiv, 2020).

T1: TcAK (arginine kinase from Trypanosoma cruzi) (Trypanosoma cruzi, UniProt O96507)
T1 sequence (O96507 1-357): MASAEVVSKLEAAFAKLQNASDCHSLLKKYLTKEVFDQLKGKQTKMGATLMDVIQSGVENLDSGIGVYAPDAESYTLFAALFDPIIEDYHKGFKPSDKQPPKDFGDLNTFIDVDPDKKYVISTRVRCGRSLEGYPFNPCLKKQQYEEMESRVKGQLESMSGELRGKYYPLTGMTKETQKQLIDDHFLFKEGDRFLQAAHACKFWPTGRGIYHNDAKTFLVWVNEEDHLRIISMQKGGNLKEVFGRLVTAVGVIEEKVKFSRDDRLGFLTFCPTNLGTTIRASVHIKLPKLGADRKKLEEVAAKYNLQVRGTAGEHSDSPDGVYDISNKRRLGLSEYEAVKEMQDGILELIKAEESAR


What was measured:
[1] = target: T1, TcAK (arginine kinase from Trypanosoma cruzi); assay: coupled pyruvate kinase / lactate dehydrogenase assay, NADH at […] nm; assay type: biochemical
[2] = substrate: N=C(N)NCCC[C@H](N)C(=O)O; assay: purified protein; details: no delphinidin, ATP 1.5 mM, 1.5 mM MgCl2, Tris-HCl pH 8.2
[3] = substrate: Nc1ncnc2c1ncn2[C@@H]1O[C@H](COP(=O)(O)OP(=O)(O)OP(=O)(O)O)[C@@H](O)[C@H]1O; assay: purified protein; details: no delphinidin, arginine 10 mM, 1.5 mM MgCl2, Tris-HCl pH 8.2

Ki [1] [µM] | Molecule | Km [2] [µM] | Km [3] [µM]
1.32 | Oc1cc(O)c2cc(O)c(-c3cc(O)c(O)c(O)c3)[o+]c2c1 [delphinidin] |  | 
 | TcAK (arginine kinase from Trypanosoma cruzi) (Trypanosoma cruzi) (protein) MASAEVVSKLEAAFAKLQNASDCHSLLKKYLTKEVFDQLKGKQTKMGATLMDVIQSGVENLDSGIGVYAPDAESYTLFAALFDPIIEDYHKGFKPSDKQPPKDFGDLNTFIDVDPDKKYVISTRVRCGRSLEGYPFNPCLKKQQYEEMESRVKGQLESMSGELRGKYYPLTGMTKETQKQLIDDHFLFKEGDRFLQAAHACKFWPTGRGIYHNDAKTFLVWVNEEDHLRIISMQKGGNLKEVFGRLVTAVGVIEEKVKFSRDDRLGFLTFCPTNLGTTIRASVHIKLPKLGADRKKLEEVAAKYNLQVRGTAGEHSDSPDGVYDISNKRRLGLSEYEAVKEMQDGILELIKAEESAR | 810 ± 330 | 200 ± 330
